From FireProtDB (doi:10.1021/bi060038+) come the findings set out here.

For this series the following is noted: pH 7, CD, sodium phosphate 10 mM, reversible: Yes, whole UniProt chain shown; for denaturant m value / unfolding free energy: 25 °C; for Tm / unfolding enthalpy (van 't Hoff): Thermal.
Setting [1] is: Oceanobacillus iheyensis (strain DSM 14371 / CIP 107618 / JCM 11309 / KCTC 3954 / HTE831), GdnHCl.
Where [2] appears, read: Oceanobacillus iheyensis (strain DSM 14371 / CIP 107618 / JCM 11309 / KCTC 3954 / HTE831), Urea.
Where [3] appears, read: Oceanobacillus iheyensis (strain DSM 14371 / CIP 107618 / JCM 11309 / KCTC 3954 / HTE831).
Where [4] appears, read: Streptococcus thermophilus, GdnHCl.
The mark [5] stands for this setting: Streptococcus thermophilus, Urea.
The mark [6] stands for this setting: Halalkalibacterium halodurans (strain ATCC BAA-125 / DSM 18197 / FERM 7344 / JCM 9153 / C-125), GdnHCl.
Where [7] appears, read: Halalkalibacterium halodurans (strain ATCC BAA-125 / DSM 18197 / FERM 7344 / JCM 9153 / C-125), Urea.
Setting [8] is: Halalkalibacterium halodurans (strain ATCC BAA-125 / DSM 18197 / FERM 7344 / JCM 9153 / C-125).
The mark [9] stands for this setting: Geobacillus stearothermophilus, GdnHCl.
Setting [10] is: Geobacillus stearothermophilus, Urea.
The mark [11] stands for this setting: Bacillus subtilis (strain 168), GdnHCl.
[12] abbreviates: Bacillus subtilis (strain 168), Urea.

B1: Phosphocarrier protein HPr wild type, Q8ENY1 (protein)
chain: MKSQTFTITAETGVHARPATLLVNKAGQFDSEIEVSYKGKQVNLKSIMGVMSLGIPKGAEIEVSADGKDEEDALNGVAEVIKEHLGE
As to B1, under setting [1], the denaturant m value is 2.56 kcal/mol/M and the unfolding free energy came to 1.4 kcal/mol. In addition, under setting [2], the denaturant m value stood at 1.27 kcal/mol/M and the unfolding free energy turned out to be 3.4 kcal/mol. For the same protein, under setting [3], the Tm amounted to 58 °C and the “unfolding enthalpy (van 't Hoff)” value was determined as 59 kcal/mol.

B2: Phosphocarrier protein HPr wild type, Q8VP89 (protein)
chain: MASKDFHIVAETGIHARPATLLVQTASKFASDITLEYKGKAVNLKSIMGVMSLGVGQGADVTISAEGPDADDAIAAIAETMTKEGLA
Consider B2, for which the denaturant m value is, setting by setting: under setting [4], 2.75 kcal/mol/M; under setting [5], 0.86 kcal/mol/M. Also, the unfolding free energy worked out at 5.4 kcal/mol under setting [4] and 6.3 kcal/mol under setting [5].

B3: Phosphocarrier protein HPr wild type, Q9K8D2 (protein)
chain: MAEKTFTITAETGIHARPATQLVNKAGQYSSEITLEYKGKAVNLKSIMGVMSLGVGKGAQVTIKAEGSDEAEALKGIEEVIKEGLGE
Regarding B3, under setting [6], the denaturant m value turned out to be 2.36 kcal/mol/M and the unfolding free energy stood at 5.3 kcal/mol. Under setting [7], the denaturant m value came to 0.9 kcal/mol/M and the unfolding free energy was found to be 6.8 kcal/mol. For the same protein, under setting [8], the Tm was 82.3 °C and the “unfolding enthalpy (van 't Hoff)” value turned out to be 87 kcal/mol.

B4: Phosphocarrier protein HPr wild type, P42013 (protein)
chain: MAEKTFKVVSDSGIHARPATILVQTASKFNSEIQLEYNGKTVNLKSIMGVMSLGIPKGATIKITAEGADAAEAMAALTDTLAKEGLAE
On to B4, for which, under setting [9], the denaturant m value came to 2.43 kcal/mol/M and the unfolding free energy worked out at 6.7 kcal/mol. Besides, under setting [10], the denaturant m value turned out to be 0.98 kcal/mol/M and the unfolding free energy is 8.2 kcal/mol. Further, under “Geobacillus stearothermophilus”, the Tm was found to be 88.3 °C and the “unfolding enthalpy (van 't Hoff)” value was 99 kcal/mol.

B5: Phosphocarrier protein HPr wild type, P08877 (protein)
chain: MAQKTFKVTADSGIHARPATVLVQTASKYDADVNLEYNGKTVNLKSIMGVMSLGIAKGAEITISASGADENDALNALEETMKSEGLGE
Take B5: under setting [11], the denaturant m value stood at 3.28 kcal/mol/M and the unfolding free energy stood at 3.4 kcal/mol. Moreover, under setting [12], the denaturant m value is 1.08 kcal/mol/M and the unfolding free energy was 5 kcal/mol. Also, under “Bacillus subtilis (strain 168)”, the Tm came to 73 °C and the “unfolding enthalpy (van 't Hoff)” value turned out to be 77 kcal/mol.
